This note sets out measurements from publication PMC3581536.

This assay concerns the target MazFa tagged with 6 histidine at its C-terminus (Anabaena sp. PCC 7120). Briefly: pull-down; MazEa and MazFa-His6 co-expressed in E. coli BL21(DE3)(pJS798); co-purified on Ni2+-NTA His.Bind resin under native conditions; 15% SDS-PAGE, bands identified by MALDI-TOF MS, densitometry with Image J.

For the substance MazEa (natural protein), the stoichiometry N (MazEa per MazFa (molar ratio)) amounted to 0.5.
